Measurements taken from article PMC10397247.
Each block holds one binder with its values, some of them ahead of it.

Columns and labels:
4H953-bA = molecular target: T1, 4H953-bA; experiment: two-hybrid library CCNG1;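 also: natural log of median RNA to DNA barcode read ratio; higher means stronger binding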
T1 chain: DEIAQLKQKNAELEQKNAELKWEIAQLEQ

4H3843-bA = molecular target: T2, 4H3843-bA; experiment: two-hybrid library CCNG1;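 also: natural log of median RNA to DNA barcode read ratio; higher means stronger binding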
T2 chain: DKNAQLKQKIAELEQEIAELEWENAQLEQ

4H3189-bA = molecular target: T3, 4H3189-bA; experiment: two-hybrid library CCNG1;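 also: natural log of median RNA to DNA barcode read ratio; higher means stronger binding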
T3 chain: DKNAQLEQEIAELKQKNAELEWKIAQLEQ

4H568-bA = molecular target: T4, 4H568-bA; experiment: two-hybrid library CCNG1;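 also: natural log of median RNA to DNA barcode read ratio; higher means stronger binding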
T4 chain: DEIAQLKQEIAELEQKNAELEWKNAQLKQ

4H883-bA = molecular target: T5, 4H883-bA; experiment: two-hybrid library CCNG1;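 also: natural log of median RNA to DNA barcode read ratio; higher means stronger binding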
T5 chain: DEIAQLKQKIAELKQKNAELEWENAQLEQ

4H607-bA = molecular target: T6, 4H607-bA; experiment: two-hybrid library CCNG1;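 also: natural log of median RNA to DNA barcode read ratio; higher means stronger binding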
T6 chain: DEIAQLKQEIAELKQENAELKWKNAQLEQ

4H3606-bA = molecular target: T7, 4H3606-bA; experiment: two-hybrid library CCNG1
T7 chain: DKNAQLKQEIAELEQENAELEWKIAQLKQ

4H4001-bA = molecular target: T8, 4H4001-bA; experiment: two-hybrid library CCNG1
T8 chain: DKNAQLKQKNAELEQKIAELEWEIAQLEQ

4H3782-bA = molecular target: T9, 4H3782-bA; experiment: two-hybrid library CCNG1
T9 chain: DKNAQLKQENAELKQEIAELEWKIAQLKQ

4H797-bA = molecular target: T10, 4H797-bA; experiment: two-hybrid library CCNG1
T10 chain: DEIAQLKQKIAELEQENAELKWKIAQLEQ

4H687-bA = molecular target: T11, 4H687-bA; experiment: two-hybrid library CCNG1
T11 chain: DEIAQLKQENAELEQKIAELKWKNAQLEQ

4H918-bA = molecular target: T12, 4H918-bA; experiment: two-hybrid library CCNG1
T12 chain: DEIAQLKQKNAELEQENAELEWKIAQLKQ

4H72-bA = molecular target: T13, 4H72-bA; experiment: two-hybrid library CCNG1
T13 chain: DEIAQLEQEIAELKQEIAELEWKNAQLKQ

4H967-bA = molecular target: T14, 4H967-bA; experiment: two-hybrid library CCNG1
T14 chain: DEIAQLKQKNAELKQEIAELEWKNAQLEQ

4H331-bA = molecular target: T15, 4H331-bA; experiment: two-hybrid library CCNG1
T15 chain: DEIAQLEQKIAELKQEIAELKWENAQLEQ

4H370-bA = molecular target: T16, 4H370-bA; experiment: two-hybrid library CCNG1
T16 chain: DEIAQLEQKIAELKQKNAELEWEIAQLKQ

4H462-bA = molecular target: T17, 4H462-bA; experiment: two-hybrid library CCNG1
T17 chain: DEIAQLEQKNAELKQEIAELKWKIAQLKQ

4H891-AA = molecular target: T18, 4H891-AA; experiment: two-hybrid library CCmax; conditions: mean of both orientations
T18 chain: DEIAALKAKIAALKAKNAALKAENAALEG

4H2274-AA = molecular target: T19, 4H2274-AA; experiment: two-hybrid library CCmax; conditions: mean of both orientations
T19 chain: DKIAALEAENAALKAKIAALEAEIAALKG

4H2253-AA = molecular target: T20, 4H2253-AA; experiment: two-hybrid library CCmax; conditions: mean of both orientations
T20 chain: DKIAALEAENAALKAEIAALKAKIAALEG

4H94-AA = molecular target: T21, 4H94-AA; experiment: two-hybrid library CCmax; conditions: mean of both orientations
T21 chain: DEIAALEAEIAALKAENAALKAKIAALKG

4H3009-AA = molecular target: T22, 4H3009-AA; experiment: two-hybrid library CCmax; conditions: mean of both orientations
T22 chain: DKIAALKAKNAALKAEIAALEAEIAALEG

4H3395-AA = molecular target: T23, 4H3395-AA; experiment: two-hybrid library CCmax; conditions: mean of both orientations
T23 chain: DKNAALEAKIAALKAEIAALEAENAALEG

4H3590-AA = molecular target: T24, 4H3590-AA; experiment: two-hybrid library CCmax; conditions: mean of both orientations
T24 chain: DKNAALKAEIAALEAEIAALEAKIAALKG

4H3016-AA = molecular target: T25, 4H3016-AA; experiment: two-hybrid library CCmax; conditions: mean of both orientations
T25 chain: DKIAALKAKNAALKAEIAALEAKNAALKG

4H2438-AA = molecular target: T26, 4H2438-AA; experiment: two-hybrid library CCmax; conditions: mean of both orientations
T26 chain: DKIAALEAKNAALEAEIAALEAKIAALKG

4H850-AA = molecular target: T27, 4H850-AA; experiment: two-hybrid library CCmax; conditions: mean of both orientations
T27 chain: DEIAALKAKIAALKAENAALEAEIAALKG

4H2865-AA = molecular target: T28, 4H2865-AA; experiment: two-hybrid library CCmax; conditions: mean of both orientations
T28 chain: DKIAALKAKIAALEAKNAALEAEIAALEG

4H3130-AA = molecular target: T29, 4H3130-AA; experiment: two-hybrid library CCmax; conditions: mean of both orientations
T29 chain: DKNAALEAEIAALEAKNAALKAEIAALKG

4H485-AA = molecular target: T30, 4H485-AA; experiment: two-hybrid library CCmax; conditions: mean of both orientations
T30 chain: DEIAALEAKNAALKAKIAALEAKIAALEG

4H2649-AA = molecular target: T31, 4H2649-AA; experiment: two-hybrid library CCmax; conditions: mean of both orientations
T31 chain: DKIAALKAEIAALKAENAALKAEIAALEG

4H745-AA = molecular target: T32, 4H745-AA; experiment: two-hybrid library CCmax; conditions: mean of both orientations
T32 chain: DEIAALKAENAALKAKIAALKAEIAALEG

4H3697-AA = molecular target: T33, 4H3697-AA; experiment: two-hybrid library CCmax; conditions: mean of both orientations
T33 chain: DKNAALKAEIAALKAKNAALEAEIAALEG

4H2330-AA = molecular target: T34, 4H2330-AA; experiment: two-hybrid library CCmax; conditions: mean of both orientations
T34 chain: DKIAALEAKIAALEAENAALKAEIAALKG

4H797-AA = molecular target: T35, 4H797-AA; experiment: two-hybrid library CCmax; conditions: mean of both orientations
T35 chain: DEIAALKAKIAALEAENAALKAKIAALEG

4H3120-AA = molecular target: T36, 4H3120-AA; experiment: two-hybrid library CCmax; conditions: mean of both orientations
T36 chain: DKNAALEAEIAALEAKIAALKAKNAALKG

4H629-AA = molecular target: T37, 4H629-AA; experiment: two-hybrid library CCmax; conditions: mean of both orientations
T37 chain: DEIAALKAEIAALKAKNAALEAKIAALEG

4H2473-AA = molecular target: T38, 4H2473-AA; experiment: two-hybrid library CCmax; conditions: mean of both orientations
T38 chain: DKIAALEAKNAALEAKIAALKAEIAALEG

4H930-AA = molecular target: T39, 4H930-AA; experiment: two-hybrid library CCmax; conditions: mean of both orientations
T39 chain: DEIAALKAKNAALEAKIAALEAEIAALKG

4H710-AA = molecular target: T40, 4H710-AA; experiment: two-hybrid library CCmax; conditions: mean of both orientations
T40 chain: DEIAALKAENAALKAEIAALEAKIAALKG

4H3410-AA = molecular target: T41, 4H3410-AA; experiment: two-hybrid library CCmax; conditions: mean of both orientations
T41 chain: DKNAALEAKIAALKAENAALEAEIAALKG

4H909-AA = molecular target: T42, 4H909-AA; experiment: two-hybrid library CCmax; conditions: mean of both orientations
T42 chain: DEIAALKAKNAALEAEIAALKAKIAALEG

4H3381-AA = molecular target: T43, 4H3381-AA; experiment: two-hybrid library CCmax
T43 chain: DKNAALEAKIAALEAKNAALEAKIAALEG

4H2698-AA = molecular target: T44, 4H2698-AA; experiment: two-hybrid library CCmax; conditions: mean of both orientations
T44 chain: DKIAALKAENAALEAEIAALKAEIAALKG

4H458-AA = molecular target: T45, 4H458-AA; experiment: two-hybrid library CCmax; conditions: mean of both orientations
T45 chain: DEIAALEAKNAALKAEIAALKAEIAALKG

4H3753-AA = molecular target: T46, 4H3753-AA; experiment: two-hybrid library CCmax; conditions: mean of both orientations
T46 chain: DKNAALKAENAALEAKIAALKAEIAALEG

4H3165-AA = molecular target: T47, 4H3165-AA; experiment: two-hybrid library CCmax; conditions: mean of both orientations
T47 chain: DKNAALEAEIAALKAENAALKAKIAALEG

4H2389-AA = molecular target: T48, 4H2389-AA; experiment: two-hybrid library CCmax; conditions: mean of both orientations
T48 chain: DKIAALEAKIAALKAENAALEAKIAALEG

4H570-AA = molecular target: T49, 4H570-AA; experiment: two-hybrid library CCmax; conditions: mean of both orientations
T49 chain: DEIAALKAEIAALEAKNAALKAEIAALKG

4H1877-AA = molecular target: T50, 4H1877-AA; experiment: two-hybrid library CCmax
T50 chain: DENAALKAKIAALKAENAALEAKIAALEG

4H536-AA = molecular target: T51, 4H536-AA; experiment: two-hybrid library CCmax; conditions: mean of both orientations
T51 chain: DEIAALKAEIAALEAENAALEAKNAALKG

4H3865-AA = molecular target: T52, 4H3865-AA; experiment: two-hybrid library CCmax; conditions: mean of both orientations
T52 chain: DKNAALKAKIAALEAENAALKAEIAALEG

4H2109-AA = molecular target: T53, 4H2109-AA; experiment: two-hybrid library CCmax; conditions: mean of both orientations
T53 chain: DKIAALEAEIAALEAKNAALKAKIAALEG

4H310-AA = molecular target: T54, 4H310-AA; experiment: two-hybrid library CCmax; conditions: mean of both orientations
T54 chain: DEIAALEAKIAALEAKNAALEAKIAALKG

4H2162-AA = molecular target: T55, 4H2162-AA; experiment: two-hybrid library CCmax; conditions: mean of both orientations
T55 chain: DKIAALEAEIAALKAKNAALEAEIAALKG

4H2725-AA = molecular target: T56, 4H2725-AA; experiment: two-hybrid library CCmax; conditions: mean of both orientations
T56 chain: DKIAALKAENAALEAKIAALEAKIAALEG

interaction score (4H953-bA): -1.34
interaction score (4H3843-bA): -1.24
interaction score (4H3189-bA): 0.465
interaction score (4H568-bA): -1.19
interaction score (4H883-bA): -1.22
interaction score (4H607-bA): -1.11
interaction score (4H3606-bA): -0.875
interaction score (4H4001-bA): -0.765
interaction score (4H3782-bA): -0.906
interaction score (4H797-bA): -1.42
interaction score (4H687-bA): -0.444
interaction score (4H918-bA): -1.44
interaction score (4H72-bA): -1.18
interaction score (4H967-bA): -1.1
interaction score (4H331-bA): -1.26
interaction score (4H370-bA): -0.547
interaction score (4H462-bA): -1.62
Binder: DKNAQLEQEIAELKQKNAELEWKIAQLEQ [4H3189-bA]

interaction score (4H891-AA): -1.36
interaction score (4H2274-AA): -1.35
interaction score (4H2253-AA): -1.17
interaction score (4H94-AA): 1.3
interaction score (4H3009-AA): 1.03
interaction score (4H3395-AA): -1.77
interaction score (4H3590-AA): -0.565
interaction score (4H3016-AA): 0.714
interaction score (4H2438-AA): -1.24
interaction score (4H850-AA): -1.25
interaction score (4H2865-AA): -0.796
interaction score (4H3130-AA): 1.82
interaction score (4H485-AA): 0.957
interaction score (4H2649-AA): -0.409
interaction score (4H745-AA): -1.08
interaction score (4H3697-AA): -0.0749
interaction score (4H2330-AA): -1.51
interaction score (4H797-AA): 0.589
interaction score (4H3120-AA): -1.28
interaction score (4H629-AA): -0.167
interaction score (4H2473-AA): -1.47
interaction score (4H930-AA): -1.46
interaction score (4H710-AA): -0.752
interaction score (4H3410-AA): -1.43
interaction score (4H909-AA): -1.84
interaction score (4H3381-AA): -0.523
interaction score (4H2698-AA): -1.45
interaction score (4H458-AA): -0.933
interaction score (4H3753-AA): -1.7
interaction score (4H3165-AA): 0.715
interaction score (4H2389-AA): -1.07
interaction score (4H570-AA): 1.9
interaction score (4H1877-AA): 0.288
interaction score (4H536-AA): -0.101
interaction score (4H3865-AA): 0.523
interaction score (4H2109-AA): 1.92
interaction score (4H310-AA): -0.467
interaction score (4H2162-AA): -1.25
interaction score (4H2725-AA): -0.897
Binder: DENAALKAKIAALKAENAALEAKIAALEG [4H1877-AA]
